Assay results as given in US8620595B2, “Methods for determining the retention of peptides in reverse phase chromatography using linear solvent strength theory” (University of Manitoba, priority 2010, dated 2013).
Where “and” joins values, the source holds several entries; their conditions need not be identical. Equal values may be shown once.

Assay: Determination of S from retention time shift Δ relative to P3 at two gradient slopes, nano-RP-HPLC MS of spiked tryptic digest
Type: physicochemical
Conditions: experimental S value, LC-MS runs of model peptide mixture
Procedure: Proteins and protein digestion. Tryptic digests of two different protein mixtures were utilized. The “test peptide mixture” contained human proteins: albumin, transferrin, fibrinogen. The “model peptide mixture” contained bovine proteins: albumin, transferrin, fibrinogen, catalase. Equimolar mixtures of the proteins were prepared, reduced with DTT, alkylated with iodoacetamide and digested with sequencing-grade modified trypsin (Promega, Madison, Wis.). Prior to nano-LC MS/MS analysis, mixtures were diluted with buffer A (0.1% formic acid in water) and spiked with the 6 standard peptides P1-P6^24 for test mixture and the set of 11 model peptides (described elsewhere^23) for a model mixture. All dilutions were performed to provide an injection of ˜100 fmole of each component into the nanoRP-HPLC MS system.
Chromatography. All chromatographic experiments were conducted at a controlled temperature of 22-23° C. For isocratic measurement of the slope values, a micro-Agilent 1100 Series system (Agilent Technologies, Wilmington, Del.), was used with a 1 mm×100 mm 5 μm Luna C18(2) (Phenomenex, Torrance, Calif.) column and a UV detector operated at 214 nm. Both eluents A (water) and B (acetonitrile) contained 0.1% formic acid as ion-pairing modifier. Stock solutions of the 11 standard peptides (˜1 mg/ml) were prepared by dissolving each peptide in 1 ml of 0.1% FA in water or a 20% acetonitrile solution. Ten microliters of sample was injected. Individual peptides were diluted to provide ˜0.5-1 μg injection of each component using a 10 μl loop. The dead volume of the column and connecting tubings was determined by injecting a non-retained compound (water) and measuring the elution time of the negative peak at a 150 μL/min flow rate. Retention factors for isocratic elution were calculated using the formula: k=(tR−t0)/t0c; where tR is the retention time, t0 is the system (column and tubings) dead time, and t0c is the column dead time. Additional details of measuring S-values via constructing log k vs. φ plots are provided elsewhere.^24 The nano-LC MS/MS experiments were conducted using splitless Tempo LC system (Eksigent, Dublin, Calif.) with 20 μL sample injection via a 300 μm×5 mm PepMap100 (Dionex, Sunnyvale, Calif.) trap-column and a 100 μm×200 mm analytical column packed with 5 μm Luna C18(2) (Phenomenex, Torrance, Calif.). Tryptic digests of the mixtures were spiked with calibrating peptides (see Table 1) as described above, injected on the trap-column using buffer A as a carrier and separated using 0.1875, 0.375 and 0.75 percent acetonitrile per minute linear gradients starting from 0.5% acetonitrile at 500 nL/min flow rate. The composition of both eluents A and B was identical to one described above for normal-flow system. Gradient programs consisted of a 0.5-40% linear increase of buffer B in 213.2, 106.6 and 53.3 minutes, respectively. After each run the gradient columns were washed with 80% B for 3 minutes and equilibrated with the starting A:B ratio for 18 minutes.
Mass spectrometry. A QStar Elite mass spectrometer (Applied Biosystems, Foster City, Calif.) equipped with a MicrolonSpray II source was used in standard MS/MS information dependent acquisition (IDA) mode for LC-ESI analyses. Protein identification was performed using Protein Pilot 3.0 (Applied Biosystems, Foster City, Calif.) with a restricted database containing target protein sequences and the sequences of standard peptides. Retention times of identified species (peak maxima) were assigned manually.
These two ways of measurement have been combined to provide a highly accurate and fast way of determining S for an extensive sets of peptides (see FIG. 3). First, precise isocratic measurement of S is performed in normal flow conditions with UV detection for a set of synthetic “S-calibrating” peptides. […]

| Substance | Slope (experimental) |
| --- | --- |
| LLEACTFHKP | 36.237 |
| GDSVSQGTGLAPGSPR | 38.571 |
| NLLFNDNTECLAK | 28.81 |
| IRPYFPEQ | 28.791 |
| NFSDVHPEYGSR | 37.948 |
| DAQLFIQK | 24.282 |
| MKGLIDEVDQDFTSR | 33.2 |
| EDLIWK [tryptic peptide detected in the model peptide mixture] | 21.902 |
| YQLSVSK | 31.531 |
| ENFEVLCK | 27.436 |
| IVNLR | 29.724 |
| ALEHKVDLEDYK | 39.365 |
| ILESGPFVSCVK | 29.323 |
| LKPDPNTLCDEFKADEK | 41.815 |
| LLSLAHFR | 29.303 |
| LLLLDFR | 23.297 |
| TSSSTFQYITLLK | 29.703 |
| LLSLLDFR | 24.464 |
| CCTESLVNR | 33.998 |
| LGEYGFQNALIVR | 29.764 |
| YYGYTGAFR | 29.343 |
| ISQLTNMGPTK | 33.29 |
| NWIQYK | 26.629 |

| Substance | Slope (experimental) |
| --- | --- |
| WYSMK | 25.257 |
| QNQVQDNENWNEYSSHLEK | 40.065 |
| VVQLEANCQEPCQDTVK | 39.579 |
| AAANFFSASCVPCADQSSFPK | 35.1 |
| LLSAADFR | 25.969 |
| LCQLCAGK | 34.229 |
| FLQEIYNSNSQK | 30.666 |
| IETMR | 37.108 |
| EPISVSSQQMLK | 33.2 |
| ENVLR | 31.531 |
| KLGAPSITCVR | 37.615 |
| VDLEDYK | 28.987 |
| KVPQVSTPTLVEVSR | 37.64 |
| KVIEQVQR | 43.582 |
| LGAPSITCVR | 32.708 |
| IEILR | 24.216 |
| CLMEGAGDVAFVK | 30.666 |
| GLIDEVDQDFTSR | 30.089 |
| NLSVEDAAR | 32.289 |
| IPSKVDSALYLGSR | 35.773 |
| YICDNQDTISSK | 37.666 |
| VLDALDSIK | 26.128 |
| LNELR | 32.443 |

| Substance | Slope (experimental) |
| --- | --- |
| TSDANINWNNLKDKK | 39.525 |
| LLVLLHFR | 27.548 |
| YCGVPGEYWLGNDR | 29.184 |
| KPVTEAQSCHLAVAPNHAVVSR | 49.479 |
| WYSMKK | 33.268 |
| EGFGHLSPTGNTEFWLGNEK | 36.558 |
| MEDEAESLEDLGFK | 29.603 |
| LLGGSLSSLDAAFR | 30.604 |
| IHLISTQSTIPYVLR | 35.386 |
| LLSLADFR | 25.239 |
| WCAIGHQER | 35.992 |
| QEPERNECFLSHKDDSPDLPK | 45.147 |
| RLDGSLDFKK | 35.968 |
| CLASIAK | 30.212 |
| WCTISQPEWFK | 30.438 |
| LVNELTEFAK | 27.906 |
| LLGGGSLSSSLHAAAFR | 35.968 |
| KKEEAPSLRPVPPPISGGGYR | 44.873 |
| HLVDEPQNLIK | 35.894 |
| EKYYGYTGAFR | 34.957 |
| LYKELPDPQESIQR | 39.098 |
| RHPYFYAPELLYYANK | 35.968 |
| ETYGDMADCCEK | 36.36 |

| Substance | Slope (experimental) |
| --- | --- |
| SNLQLLR | 24.614 |
| KNWIQYK | 31.919 |
| QFVSSSTTVNR | 37.462 |
| GYLAVAVVK | 27.811 |
| IQALLDKYNEEKPK | 40.311 |
| FFSASCVPCIDR | 32.333 |
| YLTTLK | 27.604 |
| LAGGSASSAHAAFR | 42.588 |
| NLRETAEEVK | 40.778 |
| DKVVQLEANCQEPCQDTVK | 42.675 |
| LASAAHFR | 38.571 |
| ESPQTHYYAVAVVK | 36.262 |
| TSDANINWNNLK | 30.109 |
| ELPDPQESIQR | 34.299 |
| DTDFKLNELR | 30.459 |
| LLGSLSLHAFR | 31.94 |
| LKECCDKPLLEK | 42.82 |
| LLIEMEDWKGDK | 30.791 |
| SQLQEAPLEWK | 28.576 |
| LGPNYLQIPVNCPYR | 32.953 |

Same assay, conditions: experimental S, LC-MS runs of model peptide mixture, formic acid

| Substance | Slope (experimental) |
| --- | --- |
| KANEGLTWNSLK | 31.085 |
| KFWGK | 27.604 |
| DSLFNYQK | 24.58 |
| AVLKDGPLTGTYR | 35.435 |
| RHPEYAVSVLLR | 32.553 |
| TGQIFK | 24.984 |
| HSTVFDNLPNPEDRK | 36.807 |
| VHKECCHGDLLECADDRADLAK | 44.599 |
| GEGENQCACSSR [moderately sized, hydrophilic tryptic species of the model peptide mixture] | 54.005 |
| CGLVPVLAENR | 26.128 |
| QSPVDIDTK | 31.703 |
| GAGAFGYFEVTHDITR | 33.608 |
| EDGGGWWVYNR | 23.696 |
| CACSNHEPYFGYSGAFK | 35.846 |
| LLGGGGDFR | 25.846 |
| QGFGNIATNAEGK | 31.595 |
| WCTISTHEANK | 37.234 |
| EDGSDPPSGDFLTEGGGVR | 30.812 |
| KYCGVPGEYWLGNDR | 33.065 |
| VVWCAVGPEEQKK | 33.2 |
| DALLFPSFIHSQKR | 30.728 |

| Substance | Slope (experimental) |
| --- | --- |
| MVLETFGGDGHAR | 31.001 |
| ECCHGDLLECADDR | 34.957 |
| QDGSVDFGR | 28.518 |
| AAQKPDVLTTGGGNPVGDKLNSLTVGPR | 41.986 |
| DKPDNFQLFQSPHGK | 32.597 |
| QGFGNIATNAEGKK | 37.184 |
| AAQKPDVLTTGGGNPVGDK | 41.223 |
| SVDGKEDLIWK | 30.068 |
| DDPHACYSTVFDK | 32.575 |
| DLLFR [tryptic peptide detected in the model peptide mixture] | 18.36 |
| HQLYIDETVK | 34.369 |
| DLGEEHFK | 32.597 |
| ETGWPFCSDEDWNTK | 29.105 |
| GDKELLIDNEK | 32.311 |
| DDSPDLPK | 30.875 |
| VHKECCHGDLLECADDR [fragment from bovine albumin] | 42.014 |
| YNGVFQECCQAEDK | 32.73 |
| DLEEGIQTLMGR | 26.684 |
| GDKVTALYEGFTVQNEANK | 35.1 |
| HMDGYGSHTFK | 41.758 |
| RLDGSLDFK | 29.845 |

Same assay, conditions: model peptide mixture (tryptic digest of bovine proteins), 0.75 and 0.1875% acetonitrile per minute gradients, formic acid, S from Δ vs. S curve of S-calibrating peptides

| Substance | experimental S-value |
| --- | --- |
| EDLIWK [tryptic peptide detected in the model peptide mixture] | 21.9 |
| GEGENQCACSSR [moderately sized, hydrophilic tryptic species of the model peptide mixture] | 54.1 and 51.7 |
| DLLFR [tryptic peptide detected in the model peptide mixture] | 18.4 |
| VHKECCHGDLLECADDR [fragment from bovine albumin] | ~42 |
| KPVTEAQSCHLAVAPNHAWSR (KPVTEAQSCHLAVAPNHAVVSR) [tryptic peptide of the model peptide mixture, 5 positively charged groups] | 49.5 |
